Experimental data taken from patent US20210040232A1 (Regeneron, published 2021).

Legend:
[1] = target: T1, recombinant hCTLA-4-mFc (human CTLA-4 extracellular domain with a C-terminal Fc portion of mouse IgG2a) (human); assay: competition ELISA, 200 pM hCTLA-4-mFc on plate-coated hB7-1-hIgG1-6His
T1 construct: also called dimeric CTLA-4 protein

[2] = target: T1, recombinant hCTLA-4-mFc (human CTLA-4 …); assay: competition ELISA, 400 pM hCTLA-4-mFc on plate-coated hB7-2-hIgG1-6His
[3] = target: T2, soluble human CTLA-4 expressed with a C-terminal myc-myc-polyhistidine tag (human); assay: SPR, mAb capture, 25 C
T2 construct: soluble protein; also called hCTLA-4.mmh; hCTLA4.mmh

[4] = target: T3, human CTLA-4 (amino acids M1-N223) on stably transfected VI-fibroblast cells (human, UniProt P16410 36-223); assay: ECL cell binding, VI-fibroblast/hCTLA-4 cells;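 further: antibodies bound to the cells on carbon electrode plates, detected via SULFO-TAG anti-IgG secondary (1 h, RT), electrochemiluminescence read as RLU over a concentration range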
T3 construct: also called VI-fibroblast/hCTLA-4
T3 sequence (P16410 36-223 limits assumed): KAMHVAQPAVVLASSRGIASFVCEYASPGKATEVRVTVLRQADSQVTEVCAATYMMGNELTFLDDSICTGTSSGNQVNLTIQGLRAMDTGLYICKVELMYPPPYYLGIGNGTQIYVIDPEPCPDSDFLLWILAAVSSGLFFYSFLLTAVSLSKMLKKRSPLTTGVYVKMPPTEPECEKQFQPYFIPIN

T1 sequence (chain, as listed by the source limits assumed): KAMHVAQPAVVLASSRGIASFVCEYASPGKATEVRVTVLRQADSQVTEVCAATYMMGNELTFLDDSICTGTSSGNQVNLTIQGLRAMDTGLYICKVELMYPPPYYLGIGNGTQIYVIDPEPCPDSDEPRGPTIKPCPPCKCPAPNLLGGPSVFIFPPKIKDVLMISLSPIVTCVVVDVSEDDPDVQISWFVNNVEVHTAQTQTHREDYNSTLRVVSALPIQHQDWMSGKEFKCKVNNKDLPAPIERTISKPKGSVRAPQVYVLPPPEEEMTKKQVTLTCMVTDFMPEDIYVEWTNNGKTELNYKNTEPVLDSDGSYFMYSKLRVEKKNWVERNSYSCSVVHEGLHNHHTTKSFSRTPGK

| Binder | % Blockade [1] [%] | % Blockade [2] [%] | Kd [3] [nM] | koff [3] [s⁻¹] | kon [3] [M⁻¹ s⁻¹] | t1/2 [3] [min] | EC50 [4] [nM] | ratio of RLU signal to parental VI-fibroblast at 0.6 nM Ab [4] [ratio] | IC50 [1] [nM] | IC50 [2] [nM] |
| --- | --- | --- | --- | --- | --- | --- | --- | --- | --- | --- |
| H1H20375N (antibody, human IgG1, V domains shown, here with human IgG1 Fc (H1H)) VH: QLQLQESGPGLVKPSETLSFTCTVSGGSISSNYYYWGWVRQSPGKGLEWIGSIYHTGNAYDNPSLKSRVTISVDTSKNQFSLNLNSVTAADTAIYYCARHHSSSSWWYFDVWGRGTLVIVSS VL: EIVLTQSPDTLSLSPGERATLSCRASQTVSNSHLAWYQQKPGQAPRLLIYGTSSRATGIPDRFSGSGSGTDFSLTIIRLEPDDFAVYFCQQHESSPPTFGQGAKLEIK | 13 | 29 | 66.5 | 0.00279 | 41900 | 4.1 |  |  |  |  |
| H1H20386N (antibody, human IgG1, V domains shown, here with human IgG1 Fc (H1H)) VH: QVQLVESGGGVVQPGRSLRLSCAASGFTVNRYGIHWVRQAPGKGLEWVAVTWYDGRNKYFADSVKGRFSFSRDSSTNTLYLQMNSLRAEDTAVYYCARGGLFGYFDYWGQGTLVTVSS VL: EIVLTQSPDTLSLSPGERATLSCRASQSVAGSYLAWYQQKPGQAPRLLIYGASSRATGIPDRFSGSGSGTDFTLTISRLEPEDFAVYYCQQYGTSPWTFGQGTKVEIT | 94 | 96 | 10.5 | 0.00194 | 185000 | 6 |  |  | 18 | 7.7 |
| H1H20372N (antibody, human IgG1, V domains shown, here with human IgG1 Fc (H1H)) VH: EVQLVESGGGLVQPGRSLRLSCAGTGFIFDDYAMHWVRQAPGKGLEWVSGISWNSNSLGYADSVKGRFTISRDNAKKSLYLQMSSLRAEDTALYYCVKDVTRLELRGFLDYWGQGTQVTVSS VL: DIQMTQSPSSLSASVGDRVTITCRASQDIRNDLGWHQQKSGKAPKSLIYAASSLQSGAPSRFSGSGSGTEFTLTISSLQPEDSATYYCLQQNSYPPTFGQGTKVEIK | 98 | 98 | 4.55 | 0.000367 | 80500 | 31.5 |  |  | 2.5 | 0.99 |
| H1M20372N (antibody, mouse IgG1, V domains shown, hybridoma antibody, human variable domains, mouse IgG1 Fc (H1M)) VH: EVQLVESGGGLVQPGRSLRLSCAGTGFIFDDYAMHWVRQAPGKGLEWVSGISWNSNSLGYADSVKGRFTISRDNAKKSLYLQMSSLRAEDTALYYCVKDVTRLELRGFLDYWGQGTQVTVSS VL: DIQMTQSPSSLSASVGDRVTITCRASQDIRNDLGWHQQKSGKAPKSLIYAASSLQSGAPSRFSGSGSGTEFTLTISSLQPEDSATYYCLQQNSYPPTFGQGTKVEIK |  |  |  |  |  |  | 0.88 | 14 |  |  |
| H1H20373N (antibody, human IgG1, V domains shown, here with human IgG1 Fc (H1H)) VH: EVQLLESGGGLVQPGGSLRLSCAASGFTFSSYAMSWVRQAPGKGLEWVSDISGSGLSTYYADSVKGRFAISRDNSKNMLYLQMNRLRAEDTAVYYCAKEPSHWNGEAFDIWGQGTMVTVSS VL: DIQMTQSPSSVSASVGDRVTITCRASQDISSWLAWYQQKPGKAPKLLIYTTANLQSGVPSRFSGSGSGTDFTLTISSLQSEDFATYYCQQANSFPFTFGSGTKVDIK | 22 | 91 | 0.766 | 0.000401 | 523000 | 28.8 |  |  |  | 34 |
| H1M20393N (antibody, V domains shown, hybridoma antibody, human variable domains, mouse IgG1 Fc (H1M)) VH: DRQMVESGGGVVQPGRSLRLSCIASGFIISRYGMHWVRQAPGKGLEWVAVIWYDGRNKNYADSVKGRFTISRDNSKNTLYLEMNSLRAEDTAVYYCGRVHQFGAFDIWGQGTMVTVSS VL: not shown |  |  |  |  |  |  | 7.3 | 12 |  |  |
| H1H20361N (antibody, human IgG1, V domains shown, here with human IgG1 Fc (H1H)) VH: QVQLQESGPGLVKPSQTLSLTCTVSGGSINNGGHYWTWIRQHPGKGLEWIGYIYYIGTTYYNPSLESRLSLSVDTSKNQFSLKLSSVTAADTAIYYCARSSLSVSEAFDVWGQGTMVTVSS VL: DIQMTQSPSSLSASVGDRITITCRGSQNIGSFLSWYQQRPGKAPKLLIFGAYNLQGGVPSRFSGSGSGTDFTLTISSLQPEDFATYFCQQSYSTPPITFGQGTRLEIK | 73 | 82 | 32.1 | 0.00199 | 62100 | 5.8 |  |  | 69 | 65 |
| H1H20370N (antibody, human IgG1, V domains shown, here with human IgG1 Fc (H1H)) VH: QVQLHESGPGLVKPSQTLSLTCSVSGGSISNGGYYWSWIRQHPGQGLEWIGYIYYIGNTYYNPSLESRVTMSIDTSKNQFSLKLSSVTAADTAIYYCARQEFVPGAEYFLHWGQGILVTVSS VL: DIRMTQSPSSLSASVGDRVTITCRASQTVNTFLNWYQQKPGKAPKLLIFGASSLQSGVPSRFSGSGSGTDFTLTISGLQPEDFAIYYCQQSYSVPPITFGQGTRLEIE | 95 | 96 | 3.43 | 0.000588 | 172000 | 19.6 |  |  | 0.86 | 0.99 |
| H1M20370N (antibody, mouse IgG1, V domains shown, hybridoma antibody, human variable domains, mouse IgG1 Fc (H1M)) VH: QVQLHESGPGLVKPSQTLSLTCSVSGGSISNGGYYWSWIRQHPGQGLEWIGYIYYIGNTYYNPSLESRVTMSIDTSKNQFSLKLSSVTAADTAIYYCARQEFVPGAEYFLHWGQGILVTVSS VL: DIRMTQSPSSLSASVGDRVTITCRASQTVNTFLNWYQQKPGKAPKLLIFGASSLQSGVPSRFSGSGSGTDFTLTISGLQPEDFAIYYCQQSYSVPPITFGQGTRLEIE |  |  |  |  |  |  | 0.22 | 23 |  |  |

The next lines start with the values.

| % Blockade [1] [%] | % Blockade [2] [%] | Kd [3] [nM] | koff [3] [s⁻¹] | kon [3] [M⁻¹ s⁻¹] | t1/2 [3] [min] | EC50 [4] [nM] | ratio of RLU signal to parental VI-fibroblast at 0.6 nM Ab [4] [ratio] | IC50 [1] [nM] | IC50 [2] [nM] | Binder |
| --- | --- | --- | --- | --- | --- | --- | --- | --- | --- | --- |
|  |  |  |  |  |  | 0.19 | 18 |  |  | H2M20375N (antibody, mouse IgG2, V domains shown, hybridoma antibody, human variable domains, mouse IgG2 Fc (H2M)) VH: QLQLQESGPGLVKPSETLSFTCTVSGGSISSNYYYWGWVRQSPGKGLEWIGSIYHTGNAYDNPSLKSRVTISVDTSKNQFSLNLNSVTAADTAIYYCARHHSSSSWWYFDVWGRGTLVIVSS VL: EIVLTQSPDTLSLSPGERATLSCRASQTVSNSHLAWYQQKPGQAPRLLIYGTSSRATGIPDRFSGSGSGTDFSLTIIRLEPDDFAVYFCQQHESSPPTFGQGAKLEIK |
|  |  |  |  |  |  |  | 3 |  |  | H2M20386N (antibody, mouse IgG2, V domains shown, hybridoma antibody, human variable domains, mouse IgG2 Fc (H2M)) VH: QVQLVESGGGVVQPGRSLRLSCAASGFTVNRYGIHWVRQAPGKGLEWVAVTWYDGRNKYFADSVKGRFSFSRDSSTNTLYLQMNSLRAEDTAVYYCARGGLFGYFDYWGQGTLVTVSS VL: EIVLTQSPDTLSLSPGERATLSCRASQSVAGSYLAWYQQKPGQAPRLLIYGASSRATGIPDRFSGSGSGTDFTLTISRLEPEDFAVYYCQQYGTSPWTFGQGTKVEIT |
|  |  |  |  |  |  | 0.062 | 22 |  |  | H2M20373N (antibody, mouse IgG2, V domains shown, hybridoma antibody, human variable domains, mouse IgG2 Fc (H2M)) VH: EVQLLESGGGLVQPGGSLRLSCAASGFTFSSYAMSWVRQAPGKGLEWVSDISGSGLSTYYADSVKGRFAISRDNSKNMLYLQMNRLRAEDTAVYYCAKEPSHWNGEAFDIWGQGTMVTVSS VL: DIQMTQSPSSVSASVGDRVTITCRASQDISSWLAWYQQKPGKAPKLLIYTTANLQSGVPSRFSGSGSGTDFTLTISSLQSEDFATYYCQQANSFPFTFGSGTKVDIK |
|  |  |  |  |  |  | 0.32 | 19 |  |  | H2M20361N (antibody, mouse IgG2, V domains shown, hybridoma antibody, human variable domains, mouse IgG2 Fc (H2M)) VH: QVQLQESGPGLVKPSQTLSLTCTVSGGSINNGGHYWTWIRQHPGKGLEWIGYIYYIGTTYYNPSLESRLSLSVDTSKNQFSLKLSSVTAADTAIYYCARSSLSVSEAFDVWGQGTMVTVSS VL: DIQMTQSPSSLSASVGDRITITCRGSQNIGSFLSWYQQRPGKAPKLLIFGAYNLQGGVPSRFSGSGSGTDFTLTISSLQPEDFATYFCQQSYSTPPITFGQGTRLEIK |
|  |  |  |  |  |  | 0.26 | 25 |  |  | H2M20368N (antibody, mouse IgG2, V domains shown, hybridoma antibody, human variable domains, mouse IgG2 Fc (H2M)) VH: QVQLQESGPGLVRPSQTLSLTCTVSGGSISNGGYYWTWIRQNPGKGLEWIGYIYYIGTTYYNPSLESRLSLSVDTSKNQFSLKLTSVTAADTAVYYCARSSLAVSEAFDIWGQGTMVTVSS VL: DIQMTQSPSSLSASVGDRFTITCRASQSIGSFLSWYQQKPGKAPKLLIYAASSLQSGVPSRFSGSGSGTDFTLTISSLQPEDFATYYCQQSYNTPPITFGQGTRLEIK |
|  |  |  |  |  |  |  | 3 |  |  | H2M20387N (antibody, mouse IgG2, V domains shown, hybridoma antibody, human variable domains, mouse IgG2 Fc (H2M)) VH: QVQLVESGGGVVQPGRSLRLSCAASGFTFSSYGIHWVRQAPGKGLEWVAVIWYGGNNKYYADSVKGRFTISRDNSKNTLYLQMNSLRAEDTALYHCARSGNFGAFDIWGQGTMVTVSS VL: EIVLTQSPGTLSLSPGERATLSCRASQSVSSYLAWYQQKPGQAPRLLIYGASSRATGIPDRFSGSGSGTDFILTINRLEPEDFAVYYCQHYGNSPWTFGQGTKVEIK |
|  |  |  |  |  |  | 0.092 | 28 |  |  | H2M20379N (antibody, mouse IgG2, V domains shown, hybridoma antibody, human variable domains, mouse IgG2 Fc (H2M)) VH: QVQLVESGGGVVQPGRSLRLSCAASGITFSSYGMHWVRQAPGKGLEWVALTSYDGSKKYYSDSVKGRFTISRDNSKNTLYLQMNSLRPEDTAVYYCAKDKGGDDYYGMDVWGQGTTVTVSS VL: EIVLTQSPGTLSLSPGERATLSCRASQWISSSYLAWYQQKPGQAPRLLIYGAFSRAPGIPGRFSGSGSGTDFTLTISRLEPEDFAVYYCQQYGSSPYTFGQGTKLEIN |
|  |  |  |  |  |  | 0.9 | 18 |  |  | H2M20369N (antibody, mouse IgG2, V domains shown, hybridoma antibody, human variable domains, mouse IgG2 Fc (H2M)) VH: QVQLVQSGTEVKRPGASVKVSCKASGFTFTGYYIYWVRQAPGEGLEWMGWINPHSGGTKYAQKFQGRVTLTRDTSINTAYLDLISLRSDDTAVYYCARIGGGGYSSYFDYWGQGTLVTVSS VL: DIQLTQSPSSLSASVGDRVTITCRASQTISTYLNWYQQKPGNAPKLLIYAASSLQSGVPSRFSGRGSGTDFTLTISSLQPEDFATYYCQQGYTTPPITFGQGTRLEIK |
|  |  |  |  |  |  | 5.5 | 8 |  |  | H2M20385N (antibody, mouse IgG2, V domains shown, hybridoma antibody, human variable domains, mouse IgG2 Fc (H2M)) VH: QVQLVQSGAEVKKPGASVKVSCKTSGYTFTNNGISWVRQVPGQGLEWMGWISPYNGNTKYAQKFQGRVTMTTDTSTTTVYMDVRSLRSDDTAVYFCARDGPITISYFGMDVWGQGTTVTVSS VL: DIQMTQSPSSLSASVGDRVTITCRASQSISTYLNWYQQKPGKAPKLLIYAASTLQSGVPSRFGGSGSGTDFTLTVSSLQPEDFATYYCQQSYSTPPITFGQGTRLEIN |
